Experimental data as given in patent US20220175944A1 (MAGENTA THERAPEUTICS, published 2022).

B1: CK6 S239C-PBD (antibody, V domains shown)
VH: QVQLVQSGAAVKKPGESLKISCKGSGYRFTSYWIGWVRQMPGKGLEWMGIIYPGDSDTRYSPSFQGQVTISAGKSISTAYLQWSSLKASDTAMYYCARHGRGYNGYEGAFDIWGQGTMVTVSS
VL: AIQLTQSPSSLSASVGDRVTITCRASQGISSALAWYQQKPGKAPKLLIYDASSLESGVPSRFSGSGSGTDFTLTISSLQPEDFATYYCQQFNSYPLTFGGGTKVEIK
modifications: PBD (DNA cross linker) conjugated to the antibody, Fc modification S239C, DAR 1.7
B2: CK6 S239C-D4 (calicheamicin) (antibody, V domains shown)
VH: B1 VH
VL: B1 VL
modifications: calicheamicin (D4) conjugated to the antibody, Fc modification S239C, DAR 1.72
B3: CK6 S239C-DM (duocarmycin) (antibody, V domains shown)
VH: B1 VH
VL: B1 VL
modifications: duocarmycin (DM) conjugated to the antibody, Fc modification S239C, DAR 1.65
B4: CK6-SET0207 (Fc modification D265C H435A) (antibody, V domains shown)
VH: B1 VH
VL: B1 VL
modifications: SET0207 payload ('Non-cleavable natural') conjugated to the antibody, Fc modification D265C H435A, DAR 2.0
B5: CK6 S239C-PNU (antibody, V domains shown)
VH: B1 VH
VL: B1 VL
modifications: PNU (DNA topoisomerase I/II inhibitor) conjugated to the antibody, Fc modification S239C, DAR 1.4

Each binder was assayed against Baboon CD117 on baboon CD34+ bone marrow cells (baboon) (assay: cell-based or functional assay).

Row | Binder | IC50, killing of baboon CD34+ bone marrow cells (live cell counts by flow cytometry)
1 | B1 | 0.00066 nM
2 | B2 | 14.6 nM

Each binder was assayed against T1, Human CD117 on Kasumi-1 cells or primary human CD34+ bone marrow cells (human, UniProt P10721 26-976) (assay: cell-based or functional assay).
T1 sequence (P10721 26-976 limits assumed): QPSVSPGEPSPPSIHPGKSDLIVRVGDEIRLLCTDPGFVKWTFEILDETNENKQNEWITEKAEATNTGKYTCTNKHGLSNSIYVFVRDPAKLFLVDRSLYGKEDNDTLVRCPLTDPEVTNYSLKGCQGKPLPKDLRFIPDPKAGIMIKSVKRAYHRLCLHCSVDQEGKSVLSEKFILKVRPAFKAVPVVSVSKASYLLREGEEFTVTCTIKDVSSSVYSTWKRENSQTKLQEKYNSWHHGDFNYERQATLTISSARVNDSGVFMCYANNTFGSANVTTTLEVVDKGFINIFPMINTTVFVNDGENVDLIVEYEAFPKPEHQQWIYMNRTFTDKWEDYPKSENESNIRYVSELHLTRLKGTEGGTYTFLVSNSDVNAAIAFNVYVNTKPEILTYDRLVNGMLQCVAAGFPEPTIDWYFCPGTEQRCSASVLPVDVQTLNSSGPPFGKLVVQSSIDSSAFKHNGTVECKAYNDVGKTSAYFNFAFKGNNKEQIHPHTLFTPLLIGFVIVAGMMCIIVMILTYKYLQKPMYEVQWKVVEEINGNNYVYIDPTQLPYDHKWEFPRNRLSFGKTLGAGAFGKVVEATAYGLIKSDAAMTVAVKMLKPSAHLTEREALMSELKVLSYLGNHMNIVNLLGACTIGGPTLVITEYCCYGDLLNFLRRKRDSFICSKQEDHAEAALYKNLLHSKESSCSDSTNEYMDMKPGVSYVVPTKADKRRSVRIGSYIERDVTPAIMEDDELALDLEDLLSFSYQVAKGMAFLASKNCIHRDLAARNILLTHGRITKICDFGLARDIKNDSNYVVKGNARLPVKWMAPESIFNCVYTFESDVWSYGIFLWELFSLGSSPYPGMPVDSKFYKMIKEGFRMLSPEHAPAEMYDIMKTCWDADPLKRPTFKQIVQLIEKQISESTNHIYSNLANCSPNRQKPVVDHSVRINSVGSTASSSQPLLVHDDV

Row | Binder | % Efficacy, in vitro Kasumi cell killing assay
3 | B1 | 60.7%
4 | B3 | 0%
5 | B4 | 0%
6 | B5 | 85.7%
7 | B2 | 0%

Target: T1, Human CD117 on Kasumi-1 cells or …
Assay: cell-based or functional assay
Remark: another data set of the same source

Row | Binder | % Efficacy, in vitro hCD34 cell killing assay
8 | B1 | 97.3%
9 | B3 | 66.2%
10 | B4 | 9.18%
11 | B5 | 74.4%
12 | B2 | 52.3%
